Data published in article PMC5772480, “Galectin-13, a different prototype galectin, does not bind β-galacto-sides and forms dimers via intermolecular disulfide bridges between Cys-136 and Cys-138” (Scientific Reports, 2018).
Residue numbers refer to the chain shown, from its start. Values after ≈ are worked out from the molar mass of the structure shown.

T1: Gal-13 (galectin-13, placental protein 13, PP13) (Homo sapiens, UniProt Q9UHV8, R53H)
T1 construct: gene LGALS13; full length 1-139, synthetic gene in pET28a, E. coli BL21(DE3); N-terminal His tag removed by thrombin; disulfide-linked homodimer
T1 sequence (Q9UHV8 1-139 R53H): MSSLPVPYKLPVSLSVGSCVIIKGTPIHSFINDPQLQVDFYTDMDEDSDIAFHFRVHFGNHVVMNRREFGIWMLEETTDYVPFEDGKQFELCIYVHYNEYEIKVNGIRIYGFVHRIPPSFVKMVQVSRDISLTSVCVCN

T2: Galectin-13 (wild type) (human), Q9UHV8
T2 chain: T1 sequence (Q9UHV8 1-139 R53H) with H53R

B1: Galectin-13 (wild type), Q9UHV8 1-139 (natural protein)
chain: T1 sequence (Q9UHV8 1-139 R53H) with H53R
modifications: here or on the partner: intermolecular disulfide bonds Cys136-Cys138' and Cys138-Cys136' in the dimer; intermolecular disulfide bonds Cys136-Cys138' and Cys138-Cys136' in the dimer

Tests used:
[1] = target: T1, Gal-13 (galectin-13, placental protein 13, PP13); experiment: inhibition of hemagglutination of chicken erythrocytes; type: cell-based; conditions: pH 7.4 PBS, on ice; minimum inhibition concentration
Excerpt: inhibition of hemagglutination of chicken erythrocytes on Gal-13 (galectin-13, placental protein 13, PP13) | maltose and arabinose could inhibit the biological activity of […]

[2] = target: T2, Galectin-13 (wild type) (human), Q9UHV8; experiment: non-reducing SDS-PAGE; SDS-PAGE of Gal-13 with or without DTT reduction; dimer band at approximately 38 kDa without DTT; conditions: remark: other sources report otherwise
[3] = target: T2, Galectin-13 (wild type) (human), Q9UHV8; experiment: native gel or EMSA; native PAGE, 15% separating gel, Tris-glycine buffer, 5 μg protein per lane, 90 V for 3 h; migration compared with Gal-1 (dimer) and C136S/C138S (monomer); conditions: remark: other sources report otherwise
[4] = target: T2, Galectin-13 (wild type) (human), Q9UHV8; experiment: SEC; Superdex 75 10/300, PBS pH 7.4, 25 °C, 100 μg protein loaded, 0.5 ml/min; apparent molecular weights from a standard curve; Gal-13 also run in the presence of 10 mM DTT (mostly monomer, small amount of dimer); conditions: remark: other sources report otherwise

Row | Molecule | MIC [1] [mM] | stoichiometry N [2] | stoichiometry N [3] | stoichiometry N [4]
1 | OC[C@H]1O[C@H](O[C@H]2[C@H](O)[C@@H](O)C(O)O[C@@H]2CO)[C@H](O)[C@@H](O)[C@@H]1O (some centres unmarked) [maltose] | 12.5 (≈ 4.28 mg/mL) |  |  | 
2 | OC1OC[C@H](O)[C@H](O)[C@H]1O (some centres unmarked) [arabinose] | 200 (≈ 30 mg/mL) |  |  | 
3 | B1 |  | 2 | 2 | 2
